Test results published in publication doi:10.1101/2021.06.07.447473.

Target: eIF2B(αβδγε)2 decamer, eIF2Bβ Avi-tagged and biotinylated (human) (UniProt Q14232)
Test: SPR

Sandfly Fever Sicilian virus (SFSV) NSs protein with C-terminal 6xHIS tag (NSs::6xHIS) (natural protein)
Kd: 0.043 µM
